For this assay, the target named is T1, human transferrin (human, UniProt P02787 20-698).
T1 construct: mature; also called hTf; native human transferrin
The assay is described as follows: ELISA, biotinylated human transferrin on streptavidin plate, anti-hARSA detection. The method, then:
A 96-well plate was coated with streptavidin (0.1 μg/mL, 100 μL/well) and incubated overnight at 4° C.; after washing the plate three times with buffer PBST, the 96-well plate was blocked with 200 μL of PBST containing 1% bovine serum albumin (BSA) for 1 hour at room temperature. The plate was then washed three times with PBST, added with biotinylated human transferrin (1 μg/mL, 100 μL/well) and incubated at room temperature for 1 hour. […] The plate was then washed three times with PBST, added with goat anti-hARSA antibody (R&D, AF2485) (100 μL/well) at a concentration of 0.125 ug/mL to each well and incubated at room temperature for 1 hour. The plate was then washed three times with PBST, added with 100 μL anti-goat IgG-HRP to each well and incubated at room temperature for 0.5 hour, followed by the same washing steps aforementioned. The plate was then added with 100 μL/well of TMB substrate solution and incubated at room temperature for 15 minutes. The reaction was then stopped by adding 100 μL/well of the stop solution, and the absorbance was read at 450 nm using an ELISA reader.

T1 sequence (P02787 20-698): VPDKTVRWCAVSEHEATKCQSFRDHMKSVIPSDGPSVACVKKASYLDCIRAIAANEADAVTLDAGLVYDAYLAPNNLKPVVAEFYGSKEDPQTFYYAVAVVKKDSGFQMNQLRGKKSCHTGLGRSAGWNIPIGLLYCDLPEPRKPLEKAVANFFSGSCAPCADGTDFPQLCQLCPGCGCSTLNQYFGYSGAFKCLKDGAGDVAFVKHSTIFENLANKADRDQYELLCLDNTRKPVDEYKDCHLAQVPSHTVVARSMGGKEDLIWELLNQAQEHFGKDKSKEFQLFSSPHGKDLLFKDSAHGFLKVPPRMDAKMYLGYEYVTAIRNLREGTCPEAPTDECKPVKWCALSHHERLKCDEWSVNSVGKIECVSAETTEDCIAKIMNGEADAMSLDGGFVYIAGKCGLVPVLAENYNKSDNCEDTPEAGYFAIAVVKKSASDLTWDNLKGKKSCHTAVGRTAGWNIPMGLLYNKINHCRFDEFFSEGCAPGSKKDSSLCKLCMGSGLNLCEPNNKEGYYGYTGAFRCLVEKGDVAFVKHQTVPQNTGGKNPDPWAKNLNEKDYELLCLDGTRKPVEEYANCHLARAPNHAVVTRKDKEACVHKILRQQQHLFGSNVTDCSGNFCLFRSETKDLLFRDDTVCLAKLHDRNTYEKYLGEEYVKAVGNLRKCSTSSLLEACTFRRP

B1: hARSA (enzyme)
chain: RPPNIVLIFADDLGYGDLGCYGHPSSTTPNLDQLAAGGLRFTDFYVPVSLCTPSRAALLTGRLPVRMGMYPGVLVPSSRGGLPLEEVTVAEVLAARGYLTGMAGKWHLGVGPEGAFLPPHQGFHRFLGIPYSHDQGPCQNLTCFPPATPCDGGCDQGLVPIPLLANLSVEAQPPWLPGLEARYMAFAHDLMADAQRQDRPFFLYYASHHTHYPQFSGQSFAERSGRGPFGDSLMELDAAVGTLMTAIGDLGLLEETLVIFTADNGPETMRMSRGGCSGLLRCGKGTTYEGGVREPALAFWPGHIAPGVTHELASSLDLLPTLAALAGAPLPNVTLDGFDLSPLLLGTGKSPRQSLFFYPSYPDEVRGVFAVRTGKYKAHFFTQGSAHSDTTADPACHASSSLTAHEPPLLYDLSKDPGENYNLLGGVAGATPEVLQALKQLQLLKAQLDAAVTFGPSQVARGEDPALQICCHPGCTPRPACCHCPDPHA
notes: Control enzyme without the VHH; also called rhARSA; hARSA-his
Consider B1, for which the binding result is on record as “no binding”.

B2: hARSA-9056VHH-his (other)
chain: RPPNIVLIFADDLGYGDLGCYGHPSSTTPNLDQLAAGGLRFTDFYVPVSLCTPSRAALLTGRLPVRMGMYPGVLVPSSRGGLPLEEVTVAEVLAARGYLTGMAGKWHLGVGPEGAFLPPHQGFHRFLGIPYSHDQGPCQNLTCFPPATPCDGGCDQGLVPIPLLANLSVEAQPPWLPGLEARYMAFAHDLMADAQRQDRPFFLYYASHHTHYPQFSGQSFAERSGRGPFGDSLMELDAAVGTLMTAIGDLGLLEETLVIFTADNGPETMRMSRGGCSGLLRCGKGTTYEGGVREPALAFWPGHIAPGVTHELASSLDLLPTLAALAGAPLPNVTLDGFDLSPLLLGTGKSPRQSLFFYPSYPDEVRGVFAVRTGKYKAHFFTQGSAHSDTTADPACHASSSLTAHEPPLLYDLSKDPGENYNLLGGVAGATPEVLQALKQLQLLKAQLDAAVTFGPSQVARGEDPALQICCHPGCTPRPACCHCPDPHAGGGGSGGGGSGGGGSEVQLVESGGGLVQPGGSLRLSCAASGHAYGGNYMGWFRQAPGKGLEGVAVLYTGGGSTYYADSVKGRFTISEDNSKNTVYLQMNSLRAEDTAVYYCALALGSARWYTSSLDARAYNIWGQGTLVTVSSGGGGSHHHHHH
notes: Expressed in HEK293F cells
For the molecule B2, the binding result is listed as “binds”.

These data come from patent US20240101981A1 (LINNO PHARMACEUTICALS, published 2024).
